This passage reports protein stability index results from the supplement of paper PMC10567573.

B1: MYOZ1 (parent)
chain: FSDSSMDHFQKFLPTVGGQLGTAG
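Note: lentivirally expressed fusions sorted by FACS into six bins by GFP to DsRed ratio, PSI derived from sequencing read proportions per bin multiplied by bin number.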

In the series the parent is B1. In words: protein stability index of a GFP-peptide fusion (GPS, HEK-293T) (PSI 1-6); higher = more stable. To be noted: c terminus: a fixed tail appended.
On to FSDSSMDHFQKFLPTVGNQLGTAG [G18N], for which the protein stability index was determined as 2.67.

As for FSDSSMDHFQKFLPTVGEQLGTAG [G18E], the protein stability index was 3.48.

Take FSDSSMDHFQKFLPTVGKQLGTAG [G18K]: the protein stability index was 2.

Consider FSDSSMDHFQKFLPTVGIQLGTAG [G18I], for which the protein stability index amounted to 1.52.

As for FSDSSMDHFQKFLPTVGTQLGTAG [G18T], the protein stability index is 2.55.

Consider FSDSSMDHFQKFLPTVGWQLGTAG [G18W], for which the protein stability index was 1.85.

On to FSDSSMDHFQKFLPTVGAQLGTAG [G18A], for which the protein stability index came to 1.92.

Regarding FSDSSMDHFQKFLPTVGRQLGTAG [G18R], the protein stability index is 2.79.

For FSDSSMDHFQKFLPTVGMQLGTAG [G18M], the protein stability index is 2.49.

Take FSDSSMDHFEKFLPTVGGQLGTAG [Q10E]: the protein stability index was determined as 1.95.

For the variant FSDSSMDHFAKFLPTVGGQLGTAG [Q10A], the protein stability index was 2.33.

With FSDSSMDHFIKFLPTVGGQLGTAG [Q10I], the protein stability index was found to be 2.91.

With FSDSSMDHFSKFLPTVGGQLGTAG [Q10S], the protein stability index is 2.07.

For FSDSSMDHFTKFLPTVGGQLGTAG [Q10T], the protein stability index is 2.15.

As for FSDSSMDHFYKFLPTVGGQLGTAG [Q10Y], the protein stability index worked out at 1.47.

As for FSDSSMDHFNKFLPTVGGQLGTAG [Q10N], the protein stability index stood at 2.42.

Turning to FSDSSMDHFCKFLPTVGGQLGTAG [Q10C], the protein stability index worked out at 2.06.

FSDSSMDHFDKFLPTVGGQLGTAG [Q10D]: the protein stability index turned out to be 3.15.

FSDSSMDHFPKFLPTVGGQLGTAG [Q10P]: the protein stability index amounted to 3.23.

Consider FSDSSMDHFLKFLPTVGGQLGTAG [Q10L], for which the protein stability index amounted to 1.3.

For FSDSSMDHFFKFLPTVGGQLGTAG [Q10F], the protein stability index is 2.3.

On to FSDSSMDHFHKFLPTVGGQLGTAG [Q10H], for which the protein stability index was 2.31.

In the case of FSDSSMDHFKKFLPTVGGQLGTAG [Q10K], the protein stability index was 2.14.

As for FSDSSMDHFGKFLPTVGGQLGTAG [Q10G], the protein stability index was 2.57.

With FSDSSMDHFRKFLPTVGGQLGTAG [Q10R], the protein stability index turned out to be 1.13.

For FSDSSMDHFVKFLPTVGGQLGTAG [Q10V], the protein stability index is 1.77.

With FSDSSMDHFMKFLPTVGGQLGTAG [Q10M], the protein stability index came to 2.02.

Consider FSDSSMDHFQKFLPTVIGQLGTAG [G17I], for which the protein stability index stood at 2.47.

Regarding FSDSSMDHFQKFLPTVYGQLGTAG [G17Y], the protein stability index amounted to 2.26.

For FSDSSMDHFQKFLPTVRGQLGTAG [G17R], the protein stability index came to 1.92.

Turning to FSDSSMDHFQKFLPTVPGQLGTAG [G17P], the protein stability index was determined as 2.59.

For FSDSSMDHFQKFLPTVLGQLGTAG [G17L], the protein stability index was 1.56.

For the variant FSDSSMDHFQKFLPTVAGQLGTAG [G17A], the protein stability index is 2.48.

Consider FSDSSMDHFQKFLPTVCGQLGTAG [G17C], for which the protein stability index amounted to 1.97.

For FSDSSMDHFQKFLPTVWGQLGTAG [G17W], the protein stability index was 2.03.

For the variant FSDSSMDHFQKFLPTVDGQLGTAG [G17D], the protein stability index worked out at 2.33.

On to FSDSSMDHFQKFLPTVMGQLGTAG [G17M], for which the protein stability index came to 2.06.

FSDSSMDHFQKFLPTVHGQLGTAG [G17H]: the protein stability index worked out at 2.47.

For the variant FSDSSMDHFQKFLPTVEGQLGTAG [G17E], the protein stability index stood at 2.98.

As to FSDSSMDHFQKFLPTVQGQLGTAG [G17Q], the protein stability index is 2.53.

With FSDSSMDHFQKFLPTVFGQLGTAG [G17F], the protein stability index came to 1.85.

As for FSDSSMDHFQKFLPTVNGQLGTAG [G17N], the protein stability index amounted to 2.98.

As for FSDSSMDHFQKFLPTVKGQLGTAG [G17K], the protein stability index amounted to 2.02.

In the case of FSDSSMDHFQKFLPTVVGQLGTAG [G17V], the protein stability index was found to be 2.38.

As to FSDSSMDHFQKFLPTVSGQLGTAG [G17S], the protein stability index was 2.26.

Consider FSDSSMDHFQKFLPTVTGQLGTAG [G17T], for which the protein stability index was determined as 2.56.

Turning to FSDSSMDHFQKFLPTRGGQLGTAG [V16R], the protein stability index was determined as 2.46.

Consider FSDSSMDHFQKFLPTEGGQLGTAG [V16E], for which the protein stability index is 4.23.

On to FSDSSMDHFQKFLPTDGGQLGTAG [V16D], for which the protein stability index stood at 2.85.

FSDSSMDHFQKFLPTQGGQLGTAG [V16Q]: the protein stability index worked out at 3.19.

For FSDSSMDHFQKFLPTSGGQLGTAG [V16S], the protein stability index is 2.94.

For the variant FSDSSMDHFQKFLPTMGGQLGTAG [V16M], the protein stability index stood at 2.46.

For the variant FSDSSMDHFQKFLPTCGGQLGTAG [V16C], the protein stability index amounted to 2.38.

With FSDSSMDHFQKFLPTGGGQLGTAG [V16G], the protein stability index was found to be 2.98.

As to FSDSSMDHFQKFLPTAGGQLGTAG [V16A], the protein stability index came out at 3.19.

As for FSDSSMDHFQKFLPTFGGQLGTAG [V16F], the protein stability index came out at 2.75.

FSDSSMDHFQKFLPTKGGQLGTAG [V16K]: the protein stability index turned out to be 2.64.

Turning to FSDSSMDHFQKFLPTIGGQLGTAG [V16I], the protein stability index came to 2.13.

For FSDSSMDHFQKFLPTNGGQLGTAG [V16N], the protein stability index was determined as 2.26.

FSDSSMDHFQKFLPTTGGQLGTAG [V16T]: the protein stability index is 3.09.

With FSDSSMDHFQKFLPTPGGQLGTAG [V16P], the protein stability index was 2.56.

Take FSDSSMDHFQKFLPTLGGQLGTAG [V16L]: the protein stability index was 2.28.

Turning to FSDSSMDHFQKFLPTYGGQLGTAG [V16Y], the protein stability index is 1.92.

As for FSDSSMDHFQKFLPTHGGQLGTAG [V16H], the protein stability index is 2.75.

In the case of FSDSSMDHFQKFLPTWGGQLGTAG [V16W], the protein stability index came to 2.44.

On to FSDSSMDHFQKFLRTVGGQLGTAG [P14R], for which the protein stability index was determined as 1.44.

As for FSDSSMDHFQKFLDTVGGQLGTAG [P14D], the protein stability index is 1.61.

Take FSDSSMDHFQKFLVTVGGQLGTAG [P14V]: the protein stability index is 3.62.

FSDSSMDHFQKFLLTVGGQLGTAG [P14L]: the protein stability index turned out to be 4.1.

For FSDSSMDHFQKFLFTVGGQLGTAG [P14F], the protein stability index came out at 2.83.

With FSDSSMDHFQKFLCTVGGQLGTAG [P14C], the protein stability index was 1.41.

As for FSDSSMDHFQKFLQTVGGQLGTAG [P14Q], the protein stability index amounted to 2.38.

As to FSDSSMDHFQKFLMTVGGQLGTAG [P14M], the protein stability index was 2.68.

Turning to FSDSSMDHFQKFLGTVGGQLGTAG [P14G], the protein stability index was found to be 1.58.

Take FSDSSMDHFQKFLNTVGGQLGTAG [P14N]: the protein stability index stood at 1.47.

With FSDSSMDHFQKFLTTVGGQLGTAG [P14T], the protein stability index was found to be 2.25.

On to FSDSSMDHFQMFLPTVGGQLGTAG [K11M], for which the protein stability index came out at 1.34.

Consider FSDSSMDHFQLFLPTVGGQLGTAG [K11L], for which the protein stability index was determined as 1.67.

In the case of FSDSSMDHFQHFLPTVGGQLGTAG [K11H], the protein stability index came out at 2.38.

For FSDSSMDHFQWFLPTVGGQLGTAG [K11W], the protein stability index worked out at 1.02.

For FSDSSMDHFQEFLPTVGGQLGTAG [K11E], the protein stability index worked out at 3.51.

With FSDSSMDHFQNFLPTVGGQLGTAG [K11N], the protein stability index stood at 2.56.

On to FSDSSMDHFQYFLPTVGGQLGTAG [K11Y], for which the protein stability index turned out to be 2.15.

Regarding FSDSSMDHFQPFLPTVGGQLGTAG [K11P], the protein stability index came out at 2.46.

Consider FSDSSMDHFQDFLPTVGGQLGTAG [K11D], for which the protein stability index is 3.32.

On to FSDSSMDHFQFFLPTVGGQLGTAG [K11F], for which the protein stability index turned out to be 2.07.

In the case of FSDSSMDHFQGFLPTVGGQLGTAG [K11G], the protein stability index stood at 3.21.

For FSDSSMDHFQRFLPTVGGQLGTAG [K11R], the protein stability index came out at 2.12.

For FSDSSMDHFQIFLPTVGGQLGTAG [K11I], the protein stability index is 2.12.

On to FSDSSMDHFQSFLPTVGGQLGTAG [K11S], for which the protein stability index was found to be 2.37.

As to FSDSSMDHFQTFLPTVGGQLGTAG [K11T], the protein stability index is 2.45.

With FSDSSMDHFQCFLPTVGGQLGTAG [K11C], the protein stability index is 1.8.

FSDSSMDHFQQFLPTVGGQLGTAG [K11Q]: the protein stability index came to 2.66.

Take FSDSSMDHFQAFLPTVGGQLGTAG [K11A]: the protein stability index was determined as 1.79.
